Legend:
[1] = target: Guanylate cyclase C (GC-C) (human), P25092
[2] = target: Guanylate cyclase C (GC-C) (human), P25092; assay: cell-based or functional assay

Chain of Guanylate cyclase C (GC-C) (human), P25092 (P25092 24-1073): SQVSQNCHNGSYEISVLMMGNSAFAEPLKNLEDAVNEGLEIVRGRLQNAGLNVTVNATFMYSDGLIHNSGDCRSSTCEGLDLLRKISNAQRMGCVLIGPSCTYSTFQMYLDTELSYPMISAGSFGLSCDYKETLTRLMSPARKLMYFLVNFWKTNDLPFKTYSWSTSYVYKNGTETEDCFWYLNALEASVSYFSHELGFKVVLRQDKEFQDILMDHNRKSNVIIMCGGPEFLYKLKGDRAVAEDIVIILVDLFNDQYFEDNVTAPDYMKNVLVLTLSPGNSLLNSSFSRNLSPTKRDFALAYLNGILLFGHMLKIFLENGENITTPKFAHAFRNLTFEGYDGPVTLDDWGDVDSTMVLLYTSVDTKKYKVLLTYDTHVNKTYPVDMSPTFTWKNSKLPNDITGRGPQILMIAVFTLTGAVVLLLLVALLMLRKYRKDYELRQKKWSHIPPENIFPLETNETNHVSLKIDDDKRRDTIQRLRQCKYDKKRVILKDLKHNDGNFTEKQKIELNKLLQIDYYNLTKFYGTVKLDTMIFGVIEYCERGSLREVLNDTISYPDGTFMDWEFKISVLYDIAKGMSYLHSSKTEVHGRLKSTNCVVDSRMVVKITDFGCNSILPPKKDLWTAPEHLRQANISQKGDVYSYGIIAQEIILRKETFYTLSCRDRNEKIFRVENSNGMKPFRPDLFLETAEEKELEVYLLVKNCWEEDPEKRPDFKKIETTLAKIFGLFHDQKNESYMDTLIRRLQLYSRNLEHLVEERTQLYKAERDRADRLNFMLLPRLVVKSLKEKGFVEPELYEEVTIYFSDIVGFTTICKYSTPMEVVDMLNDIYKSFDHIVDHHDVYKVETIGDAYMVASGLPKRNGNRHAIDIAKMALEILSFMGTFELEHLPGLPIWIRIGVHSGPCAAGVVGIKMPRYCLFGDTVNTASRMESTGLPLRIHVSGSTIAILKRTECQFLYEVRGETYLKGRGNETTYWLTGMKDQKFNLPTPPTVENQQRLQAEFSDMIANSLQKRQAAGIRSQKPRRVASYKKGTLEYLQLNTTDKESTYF

CCELCCNPACTGCY (modifications not checked) [Peptide 3]
Ki [1]: 1.2 nM
EC50 at pH 5 (nM), cGMP response of T84 cells [2]: 16 nM
